Data reported in patent publication US20250302016A1, “GENETICALLY MODIFIED NON-HUMAN ANIMAL WITH HUMAN OR CHIMERIC GENES” (Biocytogen Pharmaceuticals (Beijing) Co., Ltd., priority 2022, published 2025).

Tested on: IL2 signaling pathway (STAT5 phosphorylation) in mouse splenocytes
Assay: Flow cytometry detection of pSTAT5 expression in T cells and NK cells after IL2 stimulation, IL2RB/IL2RG/IL15/IL15RA four-gene humanized mice
Type: cell-based
Details: for pSTAT5 expression (CD4+ T cell) / pSTAT5 expression (CD8a+ cell) / pSTAT5 expression (NK1.1+ cell): splenocytes, 10 μg/mL IL2
Method: The IL2 and IL15 signaling pathways in IL2RB/IL2RG double-gene humanized mice were detected by flow cytometry. Specifically, three 6-week old female C57BL/6 wild-type mice (+/+), three IL2RB/IL2RG double-gene humanized heterozygous mice (H/+; H/+), and three IL2RB/IL2RG double-gene humanized homozygous mice (H/H; H/H) were selected. […] No primary antibody was added to the corresponding secondary antibody control groups.
The IL2 and IL15 signaling pathways in IL2RB/IL2RG/IL15/IL15RA four-gene humanized mice were detected by flow cytometry. […] The cells were stained with: Brilliant Violet 421™ anti-mouse NK-1.1 Antibody, APC anti-mouse CD4 Antibody, and/or Alexa Fluor 700 anti-mouse CD8a Antibody, and then subjected to flow cytometry analysis.

[1] = IL2RB/IL2RG/IL15/IL15RA four-gene humanized homozygous mice (H/H)

B1: mIL2: Biotinylated Mouse IL-2 Protein, purchased from Kactus Biosystems (protein, UniProt P04351 21-169, looked up)
Interleukin-2: APTSSSTSSSTAEAQQQQQQQQQQQQHLEQLLMDLQELLSRMENYRNLKLPRMLTFKFYLPKQATELKDLQCLEDELGPLRHVLDLTQSKSFQLEDAENFISNIRVTVVKLKGSDNTFECQFDDESATVVDFLRRWIAFCQSIISTSPQ
modifications: biotinylated
notes: Biotinylated Mouse IL-2 Protein, purchased from Kactus Biosystems
- pSTAT5 expression (CD4+ T cell) [1]: 5.3%
- pSTAT5 expression (CD8a+ cell) [1]: 12.5%
- pSTAT5 expression (NK1.1+ cell) [1]: 70.7%
- phosphorylated expression of STAT5 after stimulation (in words) (splenocytes of +/+ and four-gene humanized homozygous (H/H) mice, 10 μg/mL): phosphorylated expression of STAT5 was detected
- pSTAT5 expression (CD4+ T cell) (wild-type C57BL/6 mice (+/+)): 16.6%
- pSTAT5 expression (CD8a+ cell) (wild-type C57BL/6 mice (+/+)): 89.9%
- pSTAT5 expression (NK1.1+ cell) (wild-type C57BL/6 mice (+/+)): 41.6%
